Where a chain is given by its changes, count along the chain named. Names and notes keep the numbering of the source.
T1: FcγRIIa R extracellular domain with C-terminal His tag (human, UniProt P12318 34-217)
T1 construct: extracellular domain; Soluble receptor, R131 allotype; also called FcgRIIa R; FcgRIIaR; not shown: His tag at the C terminus
T1 sequence (looked up): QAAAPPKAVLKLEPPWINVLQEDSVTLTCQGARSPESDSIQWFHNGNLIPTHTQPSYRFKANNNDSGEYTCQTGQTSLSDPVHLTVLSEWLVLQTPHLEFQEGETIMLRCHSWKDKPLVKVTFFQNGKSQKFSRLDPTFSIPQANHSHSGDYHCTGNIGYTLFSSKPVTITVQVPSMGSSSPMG

T2: FcγRIIa H extracellular domain with C-terminal His tag (human, UniProt P12318 34-217)
T2 construct: extracellular domain; Soluble receptor, H131 allotype; also called FcgRIIa H; FcgRIIaH; not shown: His tag at the C terminus
T2 sequence (looked up): T1 sequence (looked up) with R134H

T3: FcγRIIb extracellular domain with C-terminal His tag (human, UniProt P31994 43-217)
T3 construct: extracellular domain; also called FcgRIIb; CD32B; not shown: His tag at the C terminus
T3 sequence (looked up): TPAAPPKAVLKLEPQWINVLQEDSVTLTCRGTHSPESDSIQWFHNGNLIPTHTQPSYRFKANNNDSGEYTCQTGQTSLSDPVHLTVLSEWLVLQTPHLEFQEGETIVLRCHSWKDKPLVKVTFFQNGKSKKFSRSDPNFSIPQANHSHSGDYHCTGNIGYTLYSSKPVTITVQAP

B1: GpH7-TA7/GpH7-TA45/GpL16-k0 (antibody, human IgG1, kappa)
heavy 1: QVQLVQSGAEVKKPGASVTVSCKASGYTFTDYEMHWIRQPPGEGLEWIGAIDPKTGDTAYSESFQDRVTLTADKSTSTAYMELSSLTSEDTAVYYCTRFYSYTYWGQGTLVTVSSASTKGPSVFPLAPSSKSTSGGTAALGCLVKDYFPEPVTVSWNSGALTSGVHTFPAVLQSSGLYSLSSVVTVPSSSLGTQTYICNVNHKPSNTKVDKKVEPKSCDKTHTCPPCPAPEYLWGPSVFLFPPKPKDTLMISRTPEVTCVVVDVSHEDPEVKFNWYVDGVEVHNAKTKPREEQYNATYRVVSVLTVLHQDWLNGKEYKCKVSNKALPAPIEKTISKAKGQPREPQVYTLPPSRKELTKNQVSLTCLVKGFYPSDIAVEWESNGQPENNYKTTPPVLDSDGSFFLYSKLTVDKSRWQQGNVFSCSVMHEALHNRYTQKSLSLSP
heavy 2: B1 heavy 1 with K354D, R433H, K437E
light: DIVMTQSPLSLPVTPGEPASISCQASESLVHSNRNTYLHWYLQKPGQSPQLLIYKVSNRFSGVPDRFSGSGSGTDFTLKISRVEAEDVGVYYCSQNTHVPPTFGQGTKVEIERTVAAPSVFIFPPSDEQLKSGTASVVCLLNNFYPREAKVQWKVDNALQSGNSQESVTEQDSKDSTYSLSSTLTLSKADYEKHKVYACEVTHQGLSSPVTKSFNRGEC
notes: Anti-glypican-3 IgG1; also called TA7/TA45
B2: H240-Kn061/H240-Hl071/L73-k0 variant with F241L introduced into H chain H240-Hl071 (antibody, human IgG1, kappa)
heavy 1: QDQLVQSGAEVKKPGASVKVSCKASGFNIKDTYIQWVRQAPGQGLEWMGRIDPLRKQTKYREKFEGRVTITADTSTNTAYMELSSLRSEDTAVYYCVRSGREFDYWGQGTLVTVSSASTKGPSVFPLAPSSKSTSGGTAALGCLVKDYFPEPVTVSWNSGALTSGVHTFPAVLQSSGLYSLSSVVTVPSSSLGTQTYICNVNHKPSNTKVDKKVEPKSCDKTHTCPPCPAPEYYWGPSVFLFPPKPKDTLMISRTPEVTCVVVDVSDEDPEVKFNWYVDGVEVHNAKTKPREEQYNATYRVVSVLTVLHQDWLNGKEYKCKVSNKALPAPIEKTISKAKGQPREPQVCTLPPSRDELTKNQVSLWCLVKGFYPSDIAVEWESNGQPENNYKTTPPVLDSDGSFFLYSKLTVDKSRWQQGNVFSCSVMHEALHNHYTQKSLSLSP
heavy 2: QDQLVQSGAEVKKPGASVKVSCKASGFNIKDTYIQWVRQAPGQGLEWMGRIDPLRKQTKYREKFEGRVTITADTSTNTAYMELSSLRSEDTAVYYCVRSGREFDYWGQGTLVTVSSASTKGPSVFPLAPSSKSTSGGTAALGCLVKDYFPEPVTVSWNSGALTSGVHTFPAVLQSSGLYSLSSVVTVPSSSLGTQTYICNVNHKPSNTKVDKKVEPKSCDKTHTCPPCPAPELLGGPSVLLFPPKPKDTLMISRTPEVTCVVVDVSHEDPEVKFNWYVDGVEVHNAKTKPREEQYNSTYRVVSVLTVLHQDWLNGKEYKCKVSNDALPMPIEETISKAKGQPREPQVYTLPPSRCELTKNQVSLSCAVKGFYPSDIAVEWESNGQPENNYKTTPPVLDSDGSFFLVSKLTVDKSRWQQGNVFSCSVMHEALHNHYTQKSLSLSP
light: DIQMTQSPSSLSASVGDRVTITCRASQDIHKYIAWYQQKPGQAPRLLIQYTSTLQPGVPSRFSGSGSGTDYTFTISSLQPEDIATYYCLQYEQLRTFGGGTKVEIKRTVAAPSVFIFPPSDEQLKSGTASVVCLLNNFYPREAKVQWKVDNALQSGNSQESVTEQDSKDSTYSLSSTLTLSKADYEKHKVYACEVTHQGLSSPVTKSFNRGEC
notes: Point variant of the heterodimerized anti-epiregulin IgG1 template; also called H240-Hl071 F241L
B3: H240-Kn061/H240-Hl071/L73-k0 variant with V240F introduced into H chain H240-Hl071 (antibody, human IgG1, kappa)
heavy 1: B2 heavy 1
heavy 2: B2 heavy 2 with V239F, L240F
light: B2 light
notes: Point variant of the heterodimerized anti-epiregulin IgG1 template; also called H240-Hl071 V240F
B4: H240-Kn061/H240-Hl071/L73-k0 variant with V240A introduced into H chain H240-Hl071 (antibody, human IgG1, kappa)
heavy 1: B2 heavy 1
heavy 2: B2 heavy 2 with V239A, L240F
light: B2 light
notes: Point variant of the heterodimerized anti-epiregulin IgG1 template; also called H240-Hl071 V240A
B5: H240-Kn061/H240-Hl071/L73-k0 variant with F241M introduced into H chain H240-Hl071 (antibody, human IgG1, kappa)
heavy 1: B2 heavy 1
heavy 2: B2 heavy 2 with L240M
light: B2 light
notes: Point variant of the heterodimerized anti-epiregulin IgG1 template; also called H240-Hl071 F241M
B6: H240-Kn061/H240-Hl071/L73-k0 variant with Y234E introduced into H chain H240-Kn061 (antibody, human IgG1, kappa)
heavy 1: B2 heavy 1 with Y233E
heavy 2: B2 heavy 2 with L240F
light: B2 light
notes: Point variant of the heterodimerized anti-epiregulin IgG1 template; also called H240-Kn061 Y234E
B7: H240-Kn061/H240-Hl071/L73-k0 variant with Y235N introduced into H chain H240-Kn061 (antibody, human IgG1, kappa)
heavy 1: B2 heavy 1 with Y234N
heavy 2: B2 heavy 2 with L240F
light: B2 light
notes: Point variant of the heterodimerized anti-epiregulin IgG1 template; also called H240-Kn061 Y235N
B8: H240-Kn061/H240-Hl071/L73-k0 variant with L235F introduced into H chain H240-Hl071 (antibody, human IgG1, kappa)
heavy 1: B2 heavy 1
heavy 2: B2 heavy 2 with L234F, L240F
light: B2 light
notes: Point variant of the heterodimerized anti-epiregulin IgG1 template; also called H240-Hl071 L235F

Target: T4, FcγRIIIa F extracellular domain with C-terminal His tag (human, UniProt P08637 17-208)
T4 construct: extracellular domain; Soluble receptor, F158 allotype; also called FcgRIIIa F; FcgRIIIaF; not shown: His tag at the C terminus
Test: SPR (Biacore); KD for FcγRIIb divided by KD for FcγRIIIa F
Description: The prepared antibodies were assayed as to the KDs for FcγRIIIa and FcγRIIb according to the method described in Reference Example 2.
Analysis of interaction between objective antibody and the FcγR was carried out using Biacore T100 (GE Healthcare). HBS-EP+ (GE Healthcare) was used as the running buffer, and the measurement temperature was set to 25° C. Chips produced by immobilizing the antigen peptide by the amine coupling method to a Series S Sencor Chip CM5 (GE Healthcare), or alternatively, chips produced by allowing preliminarily biotinylated antigen peptides to interact with and immobilize onto a Series S Sensor Chip SA (certified) (GE Healthcare) were used. Antibodies of interest were captured onto an antigen peptide-immobilized chip, and allowed to interact to each FcγR diluted with running buffer. To regenerate and repeatedly use the chip, the antibodies captured on the chip were washed off by reacting 10 mM glycine-HCl, pH 1.5.

T4 sequence (P08637 17-208): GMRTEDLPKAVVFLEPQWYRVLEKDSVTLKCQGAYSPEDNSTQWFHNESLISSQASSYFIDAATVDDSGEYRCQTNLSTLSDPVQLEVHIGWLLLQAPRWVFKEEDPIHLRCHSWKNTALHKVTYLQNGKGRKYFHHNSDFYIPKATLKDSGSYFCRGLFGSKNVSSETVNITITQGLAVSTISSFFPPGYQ

FcγRIIIa F/FcγRIIb ratio	Binder
5.3	B1

Target: T1, FcγRIIa R extracellular domain with …
Test: SPR (Biacore); KD of H240-Kn061/H240-Hl071/L73-k0 divided by KD of the variant

relative KD	Binder
1.2	B2
1.1	B3
1	B4
1.3	B5
1.4	B6
1	B7
1.2	B8

Target: T2, FcγRIIa H extracellular domain with …
Test: as above

relative KD	Binder
1.2	B2
0.9	B3
1.2	B4
1.1	B5
0.7	B6
0.7	B7
1.1	B8

Target: T3, FcγRIIb extracellular domain with …
Test: as above

relative KD	Binder
0.8	B2
0.9	B3
1	B4
0.9	B5
0.5	B6
0.7	B7
1	B8

Target: T4, FcγRIIIa F extracellular domain with …
Test: as above

relative KD	Binder
1.3	B2
1.4	B3
1.3	B4
1.3	B5
1.9	B6
1.3	B7
1.9	B8

Target: T5, FcγRIIIa V extracellular domain with C-terminal His tag (human, UniProt P08637 17-208)
T5 construct: extracellular domain; Soluble receptor, V158 allotype; also called FcgRIIIa V; FcgRIIIaV; not shown: His tag at the C terminus
Test: as above

T5 sequence (P08637 17-208 F176V): as the sequence (P08637 17-208) above, with F160V counted along it

relative KD	Binder
1.3	B2
1	B3
1.7	B4
1.3	B5
1.6	B6
2	B7
1.6	B8

— patent US20150344570A1 (published 2015)
